From publication PMC7176292 come the findings set out here.

A value given as a limit tells only on which side of the number the result lay.

Test [1] concerns the target human μ-opioid receptor (μOR) M153L, with HA signal sequence at the N terminus and LgBiT at the C terminus (modified pfastbac1) (human) (UniProt P35372). Kind of test: split reporter (BiFC, NanoBiT); NanoBiT on Sf9 membranes co-expressing μOR-LgBiT, Gαi1, Gβ1-SmBiT and Gγ2, in PBS pH 7.4; dose-response of DAMGO, 15 min at room temperature, luminescence; normalized to DAMGO.

The target of test [2] is human μ-opioid receptor (μOR) M153F, with HA signal sequence at the N terminus and LgBiT at the C terminus (modified pfastbac1) (human) (UniProt P35372). Described as above.
The target of test [3] is human μ-opioid receptor (μOR) M153I, with HA signal sequence at the N terminus and LgBiT at the C terminus (modified pfastbac1) (human) (UniProt P35372). The test is described as above.
For test [4], the target named is human μ-opioid receptor (μOR) M153L, with HA signal sequence at the N terminus and LgBiT at the C terminus (modified pfastbac1) (human) (UniProt P35372). Kind of test: split reporter (BiFC, NanoBiT); NanoBiT on Sf9 membranes co-expressing μOR-LgBiT, Gαi1, Gβ1-SmBiT and Gγ2, in PBS pH 7.4; dose-response of fentanyl, 15 min at room temperature, luminescence; normalized to DAMGO.

The target of test [5] is human μ-opioid receptor (μOR) M153A, with HA signal sequence at the N terminus and LgBiT at the C terminus (modified pfastbac1) (human) (UniProt P35372). The description is as above.
In test [6] the target is human μ-opioid receptor (μOR) M153F, with HA signal sequence at the N terminus and LgBiT at the C terminus (modified pfastbac1) (human) (UniProt P35372). Described as above.
The target of test [7] is human μ-opioid receptor (μOR) M153I, with HA signal sequence at the N terminus and LgBiT at the C terminus (modified pfastbac1) (human) (UniProt P35372). The test is described as above.
The target of test [8] is human μ-opioid receptor (μOR) M153V, with HA signal sequence at the N terminus and LgBiT at the C terminus (modified pfastbac1) (human) (UniProt P35372). The test is described as above.

Chain of Gi protein complex (Gαi1, Gβ1 with SmBiT at the C terminus, Gγ2) (P63096 whole entry): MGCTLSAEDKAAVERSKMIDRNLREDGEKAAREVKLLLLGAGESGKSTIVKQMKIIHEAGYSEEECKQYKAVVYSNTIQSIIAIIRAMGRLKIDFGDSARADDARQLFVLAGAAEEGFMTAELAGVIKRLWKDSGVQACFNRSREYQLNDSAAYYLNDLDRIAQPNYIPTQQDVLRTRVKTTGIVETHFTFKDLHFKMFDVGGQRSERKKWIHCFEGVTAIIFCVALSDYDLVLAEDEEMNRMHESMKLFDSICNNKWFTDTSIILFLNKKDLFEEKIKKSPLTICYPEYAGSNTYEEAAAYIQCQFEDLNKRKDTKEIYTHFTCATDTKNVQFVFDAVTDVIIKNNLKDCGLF
Chain of Gi protein complex (Gαi1, Gβ1 with SmBiT at the C terminus, Gγ2) (P62873 whole entry): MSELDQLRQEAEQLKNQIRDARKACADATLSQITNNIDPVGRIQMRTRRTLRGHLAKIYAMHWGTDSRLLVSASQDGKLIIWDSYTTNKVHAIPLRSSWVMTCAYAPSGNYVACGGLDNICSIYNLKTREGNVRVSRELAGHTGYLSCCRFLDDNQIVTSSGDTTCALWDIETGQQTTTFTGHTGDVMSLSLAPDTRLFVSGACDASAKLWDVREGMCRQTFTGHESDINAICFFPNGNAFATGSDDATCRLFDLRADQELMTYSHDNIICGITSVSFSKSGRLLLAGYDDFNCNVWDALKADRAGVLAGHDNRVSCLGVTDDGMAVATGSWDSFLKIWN
Chain of Gi protein complex (Gαi1, Gβ1 with SmBiT at the C terminus, Gγ2) (P59768 whole entry): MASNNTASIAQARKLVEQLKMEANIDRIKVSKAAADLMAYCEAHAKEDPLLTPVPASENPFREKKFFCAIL

On to “Gi protein complex (Gαi1, Gβ1 with SmBiT at the C terminus, Gγ2) (from UniProt P63096 1-354; P62873 1-340; P59768 1-71)”, for which the maximal Gi coupling (normalized to DAMGO) in test [1] is 100%; in test [2], 100%; in test [3], 100%; in test [4], under 55%; in test [5] it was under 55%; in test [6], under 55%. The maximal Gi coupling (normalized to DAMGO) in test [7] and in test [8] was under 55% each time.
